Measurements: IntAct's records for PubMed 15466887

B1: Beta-secretase 1 (Homo sapiens), P56817 (parent)
chain: MAQALPWLLLWMGAGVLPAHGTQHGIRLPLRSGLGGAPLGLRLPRETDEEPEEPGRRGSFVEMVDNLRGKSGQGYYVEMTVGSPPQTLNILVDTGSSNFAVGAAPHPFLHRYYQRQLSSTYRDLRKGVYVPYTQGKWEGELGTDLVSIPHGPNVTVRANIAAITESDKFFINGSNWEGILGLAYAEIARPDDSLEPFFDSLVKQTHVPNLFSLQLCGAGFPLNQSEVLASVGGSMIIGGIDHSLYTGSLWYTPIRREWYYEVIIVRVEINGQDLKMDCKEYNYDKSIVDSGTTNLRLPKKVFEAAVKSIKAASSTEKFPDGFWLGEQLVCWQAGTTPWNIFPVISLYLMGEVTNQSFRITILPQQYLRPVEDVATSQDDCYKFAISQSSTGTVMGAVIMEGFYVVFDRARKRIGFAVSACHVHDEFRTAAVEGPFVTLDMEDCGYNIPQTDESTLMTIAYVMAAICALFMLPLCLMVCQWRCLRCLRQQHDDFADDISLLK
partner: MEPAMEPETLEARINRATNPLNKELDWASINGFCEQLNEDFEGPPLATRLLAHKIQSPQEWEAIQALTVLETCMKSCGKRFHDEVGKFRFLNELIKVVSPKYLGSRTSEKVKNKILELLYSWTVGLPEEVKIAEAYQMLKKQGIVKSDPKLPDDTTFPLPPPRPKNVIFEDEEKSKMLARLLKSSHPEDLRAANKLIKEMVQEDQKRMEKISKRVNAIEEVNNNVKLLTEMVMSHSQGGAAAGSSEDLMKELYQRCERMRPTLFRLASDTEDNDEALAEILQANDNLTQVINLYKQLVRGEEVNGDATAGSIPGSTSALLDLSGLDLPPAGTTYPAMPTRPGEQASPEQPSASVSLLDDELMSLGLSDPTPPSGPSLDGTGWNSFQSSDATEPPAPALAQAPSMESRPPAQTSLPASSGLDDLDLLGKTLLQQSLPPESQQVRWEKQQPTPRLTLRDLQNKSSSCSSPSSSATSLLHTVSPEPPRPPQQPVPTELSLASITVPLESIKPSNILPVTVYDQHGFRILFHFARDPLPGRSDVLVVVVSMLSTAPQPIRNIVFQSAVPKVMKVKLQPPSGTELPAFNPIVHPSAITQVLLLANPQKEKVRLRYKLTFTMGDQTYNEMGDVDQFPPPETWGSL

Variants of: B1
Settings: with gga1_human GGA1, Q9UJY5

Variant	effect of a mutation on the interaction
S498A	decreasing interaction strength
S498D	with no effect
